The values that follow come from patent US20180291082A1 (IMMATICS BIOTECHNOLOGIES, published 2018).

B1: MPMISIPRV (peptide)
peptide: MPMISIPRV
B2: GPGTRLSL (peptide)
peptide: GPGTRLSL
B3: SPSPGKDPTL (peptide)
peptide: SPSPGKDPTL
B4: SPMWHVQQL (peptide)
peptide: SPMWHVQQL
B5: IPTDKLLVI (peptide)
peptide: IPTDKLLVI
B6: IPEPSAQQL (peptide)
peptide: IPEPSAQQL
B7: FPYPYAERL (peptide)
peptide: FPYPYAERL
B8: RPASSLRP (peptide)
peptide: RPASSLRP
B9: TPIAKVSEL (peptide)
peptide: TPIAKVSEL
B10: VPDGVSKVL (peptide)
peptide: VPDGVSKVL
B11: FPAHPSLLL (peptide)
peptide: FPAHPSLLL
B12: SPGDKRLAA (peptide)
peptide: SPGDKRLAA
B13: VPERGEPEL (peptide)
peptide: VPERGEPEL
B14: SPIKVPLLL (peptide)
peptide: SPIKVPLLL
B15: KPSSKALGTSL (peptide)
peptide: KPSSKALGTSL
B16: FPTEVTPHAF (peptide)
peptide: FPTEVTPHAF
B17: RVPSYTLIL (peptide)
peptide: RVPSYTLIL
B18: APAAVPSAPA (peptide)
peptide: APAAVPSAPA
B19: VVHPRTLLL (peptide)
peptide: VVHPRTLLL
B20: HPQVVILSL (peptide)
peptide: HPQVVILSL
B21: NPYEGRVEV (peptide)
peptide: NPYEGRVEV
B22: IPSRLLAIL (peptide)
peptide: IPSRLLAIL
B23: HDPDVGSNSL (peptide)
peptide: HDPDVGSNSL
B24: YPLTGDTRL (peptide)
peptide: YPLTGDTRL
B25: FELPTGAGLQL (peptide)
peptide: FELPTGAGLQL
B26: YPSEVEHMF (peptide)
peptide: YPSEVEHMF
B27: RPAPADSAL (peptide)
peptide: RPAPADSAL
B28: ISTPSEVSTPL (peptide)
peptide: ISTPSEVSTPL
B29: EVLDSHIHAY (peptide)
peptide: EVLDSHIHAY
B30: TLEQVQLYY (peptide)
peptide: TLEQVQLYY
B31: TPVTEFSLNTY (peptide)
peptide: TPVTEFSLNTY
B32: ATVGYFIFY (peptide)
peptide: ATVGYFIFY
B33: YSHAAGQGTGLY (peptide)
peptide: YSHAAGQGTGLY
B34: ASSTDSASYY (peptide)
peptide: ASSTDSASYY
B35: LTDYINANY (peptide)
peptide: LTDYINANY
B36: SILGSDVRVPSY (peptide)
peptide: SILGSDVRVPSY
B37: VLDLSTNVY (peptide)
peptide: VLDLSTNVY
B38: LMKEVMEHY (peptide)
peptide: LMKEVMEHY
B39: VLDSHIHAY (peptide)
peptide: VLDSHIHAY
B40: SVTDLEMPHY (peptide)
peptide: SVTDLEMPHY
B41: LPSPTDSNFY (peptide)
peptide: LPSPTDSNFY
B42: RSPNNFLSY (peptide)
peptide: RSPNNFLSY
B43: FITAQNHGY (peptide)
peptide: FITAQNHGY
B44: STDEITTRY (peptide)
peptide: STDEITTRY
B45: YTHHLFIFY (peptide)
peptide: YTHHLFIFY
B46: STDIGALMY (peptide)
peptide: STDIGALMY
B47: VSNGKWLLY (peptide)
peptide: VSNGKWLLY
B48: FADKIHLAY (peptide)
peptide: FADKIHLAY
B49: LITGDPKAAYDY (peptide)
peptide: LITGDPKAAYDY
B50: TASEDVFQY (peptide)
peptide: TASEDVFQY
B51: ITDFNNIRY (peptide)
peptide: ITDFNNIRY
B52: FSDKELAAY (peptide)
peptide: FSDKELAAY
B53: NSDLKYNAL (peptide)
peptide: NSDLKYNAL
B54: VTDLEMPHY (peptide)
peptide: VTDLEMPHY
B55: RSDPGGGGLAY (peptide)
peptide: RSDPGGGGLAY
B56: LDSHIHAY (peptide)
peptide: LDSHIHAY
B57: YSDLHAFYY (peptide)
peptide: YSDLHAFYY
B58: LTDSFPLKV (peptide)
peptide: LTDSFPLKV
B59: FASDLLHLY (peptide)
peptide: FASDLLHLY
B60: YAAYIIHAY (peptide)
peptide: YAAYIIHAY

Some results are limits rather than exact numbers.

One assay concerns the target T1, HLA-B*07:02 (human).
T1 construct: Peptide-receptive MHC monomer made by UV cleavage of a UV-sensitive peptide
The experiment in a line: UV-ligand exchange, anti-b2m ELISA; exchange yield grade (+ >10%, ++ >20%, +++ >50, ++++ >75%). The source says: (§1) Candidate peptides for T cell based therapies according to the present invention were further tested for their MHC binding capacity (affinity). The individual peptide-MHC complexes were produced by UV-ligand exchange, where a UV-sensitive peptide is cleaved upon UV-irradiation, and exchanged with the peptide of interest as analyzed. Only peptide candidates that can effectively bind and stabilize the peptide-receptive MHC molecules prevent dissociation of the MHC complexes. To determine the yield of the exchange reaction, an ELISA was performed based on the detection of the light chain (β2m) of stabilized MHC complexes. The assay was performed as generally described in Rodenko et al. (Rodenko et al., 2006).
(§2) 96 well MAXISorp plates (NUNC) were coated over night with 2 ug/ml streptavidin in PBS at room temperature, washed 4× and blocked for 1 h at 37° C. in 2% BSA containing blocking buffer. Refolded HLA-A*02:01/MLA-001 monomers served as standards, covering the range of 15-500 ng/ml. Peptide-MHC monomers of the UV-exchange reaction were diluted 100-fold in blocking buffer. Samples were incubated for 1 h at 37° C., washed four times, incubated with 2 ug/ml HRP conjugated anti-β2m for 1 h at 37° C., washed again and detected with TMB solution that is stopped with […]. Absorption was measured at 450 nm. Candidate peptides that show a high exchange yield (preferably higher than 50%, most preferred higher than 75%) are generally preferred for a generation and production of antibodies or fragments thereof, and/or T cell receptors or fragments thereof, as they show sufficient avidity to the MHC molecules and prevent dissociation of the MHC complexes.
Take B1: the peptide exchange yield is 20 to 50%.

As to B2, the peptide exchange yield lay in the range of 20 to 50%.

As for B3, the peptide exchange yield was 20 to 50%.

Take B4: the peptide exchange yield was 50 to 75%.

Molecule B5 showed a peptide exchange yield of 20 to 50%.

The molecule B6 displayed a peptide exchange yield of 20 to 50%.

In the case of B7, the peptide exchange yield was in the range of 20 to 50%.

Regarding B8, the peptide exchange yield lay within 20 to 50%.

In turn, B9 gave a peptide exchange yield of 50 to 75%.

As for B10, the peptide exchange yield was in the range of 20 to 50%.

B11: the peptide exchange yield was in the range of 20 to 50%.

B12: the peptide exchange yield is 50 to 75%.

B13 came in with a peptide exchange yield of 20 to 50%.

Regarding B14, the peptide exchange yield was in the range of 50 to 75%.

Turning to B15, the peptide exchange yield lay in the range of 50 to 75%.

On to B16, for which the peptide exchange yield lay within 20 to 50%.

In turn, B17 registered a peptide exchange yield of 50 to 75%.

Molecule B18 came in with a peptide exchange yield of 50 to 75%.

Molecule B19 gave a peptide exchange yield of 20 to 50%.

Consider B20, for which the peptide exchange yield fell in the range of 50 to 75%.

Molecule B21 had a peptide exchange yield of 20 to 50%.

B22 gave a peptide exchange yield of 50 to 75%.

B23: the peptide exchange yield is 20 to 50%.

Molecule B24 returned a peptide exchange yield of 20 to 50%.

In turn, B25 displayed a peptide exchange yield of 20 to 50%.

Take B26: the peptide exchange yield was in the range of 20 to 50%.

Consider B27, for which the peptide exchange yield fell in the range of 50 to 75%.

B28 had a peptide exchange yield of 20 to 50%.

For another assay, the target named is T2, HLA-A*01:01 (human).
T2 construct: Peptide-receptive MHC monomer made by UV cleavage of a UV-sensitive peptide
Described as above.
Text: as §1, §2
With B29, the peptide exchange yield fell in the range of 10 to 20%.

For B30, the peptide exchange yield fell in the range of 50 to 75%.

In the case of B31, the peptide exchange yield is 20 to 50%.

As for B32, the peptide exchange yield is 20 to 50%.

With B33, the peptide exchange yield was 50 to 75%.

For B34, the peptide exchange yield lay within 50 to 75%.

B35 had a peptide exchange yield of 50 to 75%.

Molecule B36 had a peptide exchange yield of 20 to 50%.

B37 displayed a peptide exchange yield of 50 to 75%.

B38: the peptide exchange yield fell in the range of 20 to 50%.

With B39, the peptide exchange yield is 50 to 75%.

For B40, the peptide exchange yield was in the range of 10 to 20%.

For B41, the peptide exchange yield was in the range of 20 to 50%.

B42 came in with a peptide exchange yield of 20 to 50%.

B43 gave a peptide exchange yield of 20 to 50%.

With B44, the peptide exchange yield lay in the range of 50 to 75%.

The molecule B45 yielded a peptide exchange yield of 10 to 20%.

The molecule B46 came in with a peptide exchange yield of 50 to 75%.

B47 displayed a peptide exchange yield of 50 to 75%.

B48 came in with a peptide exchange yield of 50 to 75%.

The molecule B49 came in with a peptide exchange yield of 20 to 50%.

B50 yielded a peptide exchange yield of 10 to 20%.

B51 displayed a peptide exchange yield of 50 to 75%.

Molecule B52 yielded a peptide exchange yield of more than 75%.

B53 yielded a peptide exchange yield of 20 to 50%.

B54 came in with a peptide exchange yield of more than 75%.

B55 showed a peptide exchange yield of 50 to 75%.

B56 yielded a peptide exchange yield of 10 to 20%.

As to B57, the peptide exchange yield was more than 75%.

B58 gave a peptide exchange yield of 50 to 75%.

With B59, the peptide exchange yield lay in the range of 20 to 50%.

The molecule B60 came in with a peptide exchange yield of 50 to 75%.
